Columns and labels:
[1] = target: Spodoptera_frugiperda_ABC_transporter (Spodoptera frugiperda); assay: cell-based or functional assay
[2] = target: SfABCc2 (Spodoptera frugiperda); assay: cell-based or functional assay
[3] = target: SfABCa3 (Spodoptera frugiperda); assay: cell-based or functional assay
[4] = target: HzABCa7 (Helicoverpa zea); assay: cell-based or functional assay
Cry3Aa = target: T1, Cry3Aa (Bacillus thuringiensis, UniProt P0A379 1-644); assay: yeast two-hybrid
T1 sequence: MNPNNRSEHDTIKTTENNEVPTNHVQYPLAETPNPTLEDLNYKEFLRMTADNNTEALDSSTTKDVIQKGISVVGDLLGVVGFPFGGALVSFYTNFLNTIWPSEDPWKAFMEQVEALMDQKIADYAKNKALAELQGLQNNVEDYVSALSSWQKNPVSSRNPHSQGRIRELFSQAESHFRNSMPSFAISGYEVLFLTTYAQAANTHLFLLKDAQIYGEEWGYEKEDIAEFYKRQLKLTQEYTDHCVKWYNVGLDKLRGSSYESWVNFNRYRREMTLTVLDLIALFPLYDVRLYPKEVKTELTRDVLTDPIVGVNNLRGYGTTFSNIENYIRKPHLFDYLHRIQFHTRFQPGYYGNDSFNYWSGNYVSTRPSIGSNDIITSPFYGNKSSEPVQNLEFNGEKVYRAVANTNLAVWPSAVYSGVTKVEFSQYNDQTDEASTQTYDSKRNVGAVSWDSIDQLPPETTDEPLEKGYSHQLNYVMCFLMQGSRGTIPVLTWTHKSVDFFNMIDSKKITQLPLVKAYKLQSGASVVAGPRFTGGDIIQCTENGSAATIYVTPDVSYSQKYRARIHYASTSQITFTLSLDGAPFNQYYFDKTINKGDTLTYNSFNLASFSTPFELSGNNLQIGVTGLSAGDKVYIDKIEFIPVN

Cry1Ac as used in the Sf9 cytotoxicity assays (from UniProt P05068 29-623) (ligand)
Sytox Green Fluresence, treatment (control buffer 645) [1]: 18600
Sytox Green Fluresence, treatment (control buffer 645) [2]: 20700

Cry2Ab as used in the Sf9 cytotoxicity assays (ligand)
Sytox Green Fluresence, treatment (control buffer 5398) [3]: 30600
Sytox Green Fluresence, treatment (control buffer 5398) [4]: 55300

B1: Aminopeptidase Fragment 5 (receptor)
chain: GFPVVNAVFNGKNVTFSQKRFLYTGNNNTQWYIPVTYRLSNSSSYETFWLAPNSSVTILNNLTDKDWLIVNDDSRGYYRVKYCKRLTQRIQSLLNQNHTQISELNRAQILDDSLNLARAGYIKYSEAFELLEYLKNETSYFPWFTTIKNMDYLVTRLGANTELGKRTNAMILDLISQISANISTTKWEEIDQVTTLKLQRVWADACKRGQASCISETKRLFQALRLNKTSVNPNIRDVVYCNALRNSNNIAADWEFLWNRLLISIHPQEDLYILLSLGCTTHKPYLTRLLDATINSTSVIKLQNLYTVWNSVGSASKEGLDLAFEYFVNNYKKIIEYYPDGISLLSQLANRFTTNAEVTKLQQFADRLEKNSTIRAVANSALTTARQNLQFRARIEDDLNDYFKIDNSGSSV
notes: Yeast two-hybrid construct; also called Aminopeptidase N fragment 5
binding result (Cry3Aa): no binding
